Results on one molecule are retold here after article PMC8294757 (Science Advances, 2021).

This experiment has as its target ELMO1-DOCK5 (1 to 1642) complex (human, UniProt Q9H7D0 1-1642; Q92556 1-727). Description: SPR. A general note: SPR reads the build-up and loss of mass on a sensor chip optically.

Sequence of ELMO1-DOCK5 (1 to 1642) complex (Q9H7D0 1-1642, chain 1 of 2): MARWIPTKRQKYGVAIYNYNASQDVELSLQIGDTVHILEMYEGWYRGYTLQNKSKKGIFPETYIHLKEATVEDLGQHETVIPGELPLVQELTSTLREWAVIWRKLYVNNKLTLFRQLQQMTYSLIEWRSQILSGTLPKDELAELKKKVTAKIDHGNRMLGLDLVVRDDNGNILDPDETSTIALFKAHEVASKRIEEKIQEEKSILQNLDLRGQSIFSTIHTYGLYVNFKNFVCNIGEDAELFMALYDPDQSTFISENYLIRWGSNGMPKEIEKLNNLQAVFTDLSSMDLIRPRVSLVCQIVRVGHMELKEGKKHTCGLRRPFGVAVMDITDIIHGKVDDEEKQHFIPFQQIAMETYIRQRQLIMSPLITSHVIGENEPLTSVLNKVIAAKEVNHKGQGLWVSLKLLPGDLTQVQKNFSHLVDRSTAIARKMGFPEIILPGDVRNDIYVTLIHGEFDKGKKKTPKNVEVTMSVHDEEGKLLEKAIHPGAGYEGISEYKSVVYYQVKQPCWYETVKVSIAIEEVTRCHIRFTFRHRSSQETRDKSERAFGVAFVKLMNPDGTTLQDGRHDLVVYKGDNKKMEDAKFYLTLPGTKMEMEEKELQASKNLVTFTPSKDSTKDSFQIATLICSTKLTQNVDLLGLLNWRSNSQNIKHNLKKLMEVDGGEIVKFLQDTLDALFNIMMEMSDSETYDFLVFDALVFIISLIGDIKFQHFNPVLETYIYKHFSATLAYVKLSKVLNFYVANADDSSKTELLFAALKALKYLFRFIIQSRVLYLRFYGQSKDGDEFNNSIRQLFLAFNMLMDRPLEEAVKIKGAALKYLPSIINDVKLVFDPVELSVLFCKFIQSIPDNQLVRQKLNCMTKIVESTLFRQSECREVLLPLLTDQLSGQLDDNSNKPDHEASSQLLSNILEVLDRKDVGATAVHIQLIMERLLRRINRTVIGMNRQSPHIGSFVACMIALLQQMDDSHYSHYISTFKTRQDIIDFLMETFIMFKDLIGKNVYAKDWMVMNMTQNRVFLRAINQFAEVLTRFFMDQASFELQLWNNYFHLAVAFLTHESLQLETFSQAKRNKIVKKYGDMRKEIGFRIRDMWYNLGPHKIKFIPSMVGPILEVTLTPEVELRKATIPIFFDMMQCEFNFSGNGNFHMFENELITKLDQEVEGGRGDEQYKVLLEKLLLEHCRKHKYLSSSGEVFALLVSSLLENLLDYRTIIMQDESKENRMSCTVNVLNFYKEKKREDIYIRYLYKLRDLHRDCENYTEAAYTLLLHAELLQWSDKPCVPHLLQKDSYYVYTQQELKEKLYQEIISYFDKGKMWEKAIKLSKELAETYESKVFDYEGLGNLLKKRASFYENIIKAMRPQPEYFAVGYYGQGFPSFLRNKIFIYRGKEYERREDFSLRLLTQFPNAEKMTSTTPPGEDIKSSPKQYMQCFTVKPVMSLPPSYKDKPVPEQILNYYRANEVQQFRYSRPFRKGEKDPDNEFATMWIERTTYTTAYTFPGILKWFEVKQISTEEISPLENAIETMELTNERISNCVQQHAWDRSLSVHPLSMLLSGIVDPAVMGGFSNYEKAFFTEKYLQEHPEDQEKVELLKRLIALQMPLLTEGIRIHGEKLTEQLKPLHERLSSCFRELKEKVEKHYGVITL
Sequence of ELMO1-DOCK5 (1 to 1642) complex (Q92556 whole entry, chain 2 of 2): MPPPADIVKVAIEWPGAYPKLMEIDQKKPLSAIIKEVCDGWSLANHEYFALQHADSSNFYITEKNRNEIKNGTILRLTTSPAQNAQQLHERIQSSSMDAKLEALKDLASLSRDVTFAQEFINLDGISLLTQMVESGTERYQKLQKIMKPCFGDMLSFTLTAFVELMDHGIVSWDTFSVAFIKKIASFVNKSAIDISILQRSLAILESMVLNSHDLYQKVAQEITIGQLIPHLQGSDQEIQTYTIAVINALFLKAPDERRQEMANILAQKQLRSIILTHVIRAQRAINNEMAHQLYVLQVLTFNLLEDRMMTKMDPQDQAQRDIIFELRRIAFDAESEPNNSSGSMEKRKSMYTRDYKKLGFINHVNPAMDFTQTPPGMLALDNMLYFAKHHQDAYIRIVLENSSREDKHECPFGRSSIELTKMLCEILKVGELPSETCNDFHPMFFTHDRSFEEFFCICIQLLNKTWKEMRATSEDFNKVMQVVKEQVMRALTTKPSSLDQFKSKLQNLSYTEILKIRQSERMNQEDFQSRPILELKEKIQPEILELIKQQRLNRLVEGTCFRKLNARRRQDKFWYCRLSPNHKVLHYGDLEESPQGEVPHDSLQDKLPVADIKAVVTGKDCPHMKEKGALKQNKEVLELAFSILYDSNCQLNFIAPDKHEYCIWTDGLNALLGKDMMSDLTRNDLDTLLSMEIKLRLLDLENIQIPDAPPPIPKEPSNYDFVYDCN

B1: human RhoG (residues 1 to 184) Q61L mutant, GTP-bound (natural protein)
chain: not shown
Take B1: the Kd – broadly, the equilibrium constant for the complex coming apart – was 10.3 µM.
